Laboratory results: patent publication US11898183B2, “Programmed microorganisms to attenuate a disease” (priority 2020, dated 2024)

Tested on: pathway specific substrates
Test: Enzyme functionality of pathway enzyme homologs and fusion constructs in lysed E. coli cell extracts, product by HPLC
Type: biochemical, E. coli BL21
Details: protein expressed in E. coli, lysed cell extract, pathway specific substrate, HPLC
Experimental: As per one of the possible implementations of the present disclosure, two proteins—cinnamate-4-hydroxylate (C4H) and 4-coumaroyl CoA-ligase (4CL) were expressed as one fusion protein. Also, other two proteins which were expressed as one fusion protein were hydroxycinnamoyl-CoA quinate hydroxycinnamoyltransferase (HCT) and p-coumaroyl quinate 3′-hydroxylase (HCTC3H). The fusion gene and the corresponding fusion protein was prepared using the following method. […] The enzyme fusion constructs were made for the selected genes (Table 5). Pathway genes and the fusion constructs were individually cloned in E. coli expression vector pET28+ under T7 promoter and transformed in E. coli BL21 cells. Recombinant bacterial cells were induced with IPTG and enzyme functionality was tested with pathway specific substrates (Table 5) using lysed E. coli cell extracts. HPLC analysis was carried out to quantify the product formation and in turn shortlisting of efficient enzymes for functional pathway assembly towards Etoposide in E. coli.
The E. coli transformants were grown overnight at 37° C. in 1 ml of M9 minimal media containing ampicillin (100 mg/1), in 96-well format. The next day, 150 μl of each culture was inoculated into 3 ml M9 minimal media containing ampicillin (100 mg/1), IPTG 0.1 mM in 24-well format, and incubated at 30° C. and 200 rpm for ˜20 hours. The following day, cells were spun down and pellets were resuspended in 100 μl of lysis buffer containing 10 mM Tris-HCl pH 8, 5 mM MgCl2, 1 mM CaCl2) and complete mini protease inhibitor EDTA-free (3 tablets/100 ml) (Hoffmann-La Roche, Basel, Switzerland) and frozen at −80° C. for at least 15 minutes to promote cell lysis. Pellets were thawed at room temperature and 50 μl of DNase mix (1 μl of 1.4 mg/ml DNase in H2O (˜80000 u/ml), 1.2 μl of MgCl2 500 mM and 47.8 μl of 4×PBS buffer solution) was added to each well. Plates were shaken at 500 rpm for 5 min at room temperature to allow degradation of genomic DNA. Plates were spun down at 4000 rpm for 30 min at 4° C. and six μl of the lysates were used in in vitro using appropriate substrates for enzymes as per Table 6. In each case, the resulting compounds were measured by HPLC. Results were analysed in comparison with the lysates expressing the corresponding controls (the empty plasmid). […]

Molecule | enzyme activity | enzyme activity (in words)
CCoAOMT Eleocharis dulcis: Caffeoyl CoA O-methyltransferase (CCoAOMT) from Eleocharis dulcis (protein, Depicts the nucleic acid sequence encoding Caffeoyl CoA O-methyltransferase (CCoAOMT)) MSTTTTTQTKTETQSQTGAQNGAEQQTRHSEVGHKSLLQSDALYQYILETSVYPREPECMKELRDITAKHPWNLMTTSADEGQFLNLLLKLIGAKKTMEIGVYTGYSLLATALAIPEDGTILAMDINRENYELGLPVIEKAGVAHKIDFREGPALPVLDQLIEDPANLGSFDFIFVDADKDNYLNYHKRLIELVKVGGVIGYDNTLWNGSVVLPADAPMRKYIRYYRDFVLELNKALAADPRIEISQLPVGDGITLCRRVK | 61% | –
CYP719 Cinnamomum micranthum: CYP719 from Cinnamomum micranthum (protein, Depicts the nucleic acid sequence encoding CYP719 of Cinnamomum micranthum) MEAIWTAVAIGIAAAVLMAFRGRQRQRLSRKPTQWPPGPTRLPLIGNMHQILLKGGDPFHVAINKLAQVYGPLMTVWFGTRQPTIIVSDHNLVWEVLVSKSADYAAREIPITLKPSLADFRTIVSSNAGPLWHSLRRGLQNGAIGPHSLSLQAPFQESDMAQMINNMIKEANLNGGVVKPFPHIRRAIIKLLARICFGCDFSDEEFDATMDFMVEEALRYSDDSRILDTFPPARFLPSVKRAVMQMEKVKLRLMECIGRPLDSPLPPTCYAHFLLSQSFPREVAIFSIFELFLLGVDSTGSTTMWGLGLLMQNQEAQQKLYQEIREHASCNEKGVVKVEELGKLEYLQAVAKETMRMKPIAPLAVPHQAARDTTLDGLHVAEGTTVLANLYALHYDPKVWDEPERFKPERFLESSKEFLGKRGQYSFLPFGAGMRACAGMEVGKLQLPFAICNLVNAFNWSNVVEKEAPKLIEGFSFILSMKTPLEARIVPRGI | – | highest enzyme activity
CYP71 Cinnamomum micranthum: CYP71 from Cinnamomum micranthum (protein, Depicts the nucleic acis sequence encoding CYP71 of Cinnamomum micranthum) MALLLSLLFFASALIFLLKLNGQRANKTDVPPSPPKLPLIGNLHQLGTLPHRSLRSLAGKYGPLMLLYLGRIPTLIVSSEEMAEQIMKTHDLIFASRPSITAAKELLYGCTDLAFASYGEYWRQVRKMCVLELLSIKRVNSFRSIMEEEVGLMIERISQSSSTGAAVNLAELFLSLTGGTIARAALGKKYEGEAEEGRNKYADLVKELHALLGAFSVGDYFPSLAWVDVVTGLHGKLKRNSRELDRFLDQVIEHHLMRPLDGCDVGEHTDLVDVMLQVQKDSNRDIHLTRDNIKAIILDMFSAGTDTTALTLEWVMAELAKHPNVMKKAQGEVRRVVDVKANISEEHLCQLNYMKSIIKETLRLHPPAPLLVPRESTTNVKIQNFHIPPKTRVFINAYAIGRDPTSWENPEEFLPERFANNSVDFKGQDFQFIPFGAGRRGCPGLSFAITSLELALANLLYWFDWELPQGVTEEDLDMSEALGITVHKKLPLYLVPKNHFS | 94% | –
SDH Juglans regia: Secoisolariciresinol dehydrogenase (SDH) from Juglans regia (protein, listed as Juglans regia) MNGTSSLLAPIAKRLAGKVALITGGASGIGESTARLFAEQGAKVIIADVQDELGFSVSQDKSINGAISYIHCDVTSESDVQNAVNTAVSKHGKLDIMFNTAGCTGQNKASILDHEQKDYKTVFDVNVLGSFLGAKHAAKVMIPVKRGTILFTASCVTESHGLASHSYTASKHAVVGLTKNLCVELGQYGIRVNCISPYGAATPLFLKGMGIDKKEKAEEILSSAANLKGPVLEAGDLAEAALFLASEESKYVSVLNLVVDGGYSATNVAFTETIQKFFT | 99% | –
2-ODD Nitrospira japonica: 2-oxoglutarate/Fe(II)-dependent dioxygenase (2-ODD) from Nitrospira japonica (protein, Depicts the nucleic acid sequence of 2-oxoglutarate/Fe(II)-dependent dioxygenase (2-ODD) of Nitrospira japonica, 2-oxoglutarate/Fe(II)-dependent dioxygenase (2-ODD) from Nitrospira japonica) MMGGAMTTQTLDTIAEAVDQAVARLDFDRLHREYWEQNEFLVIPQFLDRAMVEEWLVPQAQGVKGDLNRNYIPGHKKGGSVSYYTVMEKAPRFLDLYRSQVFIEFLSRLSHAKLRLCPDNDPHSCALYYYTEPGDHIGFHYDTSYYKGSRYTILMGLVDQSTHCKLVCELFKDDPVRPSKRLELITQPGDMVIFNGDKLWHAVTPLGPNEERIALTMEYVTNPDMGTFKRLYSNLKDSFAYFGLRAVFKRALSLPRR | 88% | –
CCoAOMT Chamaecyparis formosensis: Caffeoyl CoA O-methyltransferase (CCoAOMT) from Chamaecyparis formosensis (protein, Depicts the nucleic acid sequence of Caffeoyl CoA O-methyltransferase (CCoAOMT) of Chamaecyparis formosensis) MATVEATKDSTQQVSRHQEVGHKSLLQSDALYQYILETSVYPREPEPMRELREITAKHPWNLMTTSADEGQFLHLLLKLINAKNTMEIGVYTGYSLLSTALALPDDGKILAMDINRENYELGLPVIQKAGVAHKIDFREGPALPVLDQMLENKEMHGSFDFIFVDADKDNYLNYHKRLIDLVKIGGVIGYDNTLWNGSVVAPPDAPMRKYVRYYRDFVIELNKALAADPRIEISQIPVGDGITLCRRII | 95% | –
DIRPLR Linum usitatissimum: Bifunctional pinoresinol-lariciresinol reductase (DIRPLR) from Linum usitatissimum (protein, listed as Linum usitatissimum) MGRCRVLVVGGTGYIGKRIVKASIEHGHDTYVLKRPETGLDIEKFQLLLSFKKQGAHLVEASFSDHESLVRAVKLVDVVICTVSGAHSRSLLLQLKLVEAIKEAGNVKRFIPSEFGMDPARMGDALEPGRETFDLKMVVRKAIEDANIPHTYISANCFGGYFVGNLSQLGPLTPPSDKVTIYGDGNVKVVYMDEDDVATYTIMTIEDDRTLNKTMYFRPPENVITHRQLVETWEKLSGNQLQKTELSSQDFLALMEGKDVAEQIVIGHLYHIYYEGCLTNFDIDADQDQVEASSLYPEVEYTRMKDYLMIYL | – | desirable enzyme activity
2-ODD Nitrospira moscoviensis: 2-oxoglutarate/Fe(II)-dependent dioxygenase (2-ODD) from Nitrospira moscoviensis (protein, listed as Nitrospira moscoviensis) MVSNMAMGITEAVDRAVAALDVDRLHREYWEQNEFLVIRQFLPRAFVEEVLVPQAQGVKTELNRNYIPGHKKGGSVSYYTVRRRAPLFLDLYRSDSFRAFLDRLVDAKLLLCPENDPHSCALYYYTEPGDHIGFHYDTSYYKGARYTILMGLVDRSTQCKLVCELFKDHPTKAPQRLELITEPGDMVIFNGDKLWHAVTPLGEGEERIALTMEYVTNPEMGAFKRLYSNLKDSFAYFGLKTVFKQALAKKSS | 96% | –
OMT Sinopodophyllum hexandrum: O-methyltransferase 3 (OMT) from Sinopodophyllum hexandrum (protein, Depicts the nucleic acid sequence encoding O-methyltransferase 3 (OMT) of Sinopodophyllum hexandrum, O-methyltransferase 3 (OMT) from Sinopodophyllum hexandrum) MEMAPTMDLEIRNGNGYGDSGEELLAAQAHIYNHIFNFISSMALKCAVELNIPEILHNHQPKAVTLSELVQALQIPQAKSACLYRLLRILVHSGFFAITKIQSEGDEEGYLPTLSSKLLLKNHPMSMSPCLLGLVNPTMVAPMHFFSDWFKRSDDMTPFEATHGASLWKYFGETPHMAEIFNEAMGCETRLAMSVVLKECKGKLEGISSLVDVGGGTGNVGRAIAEAFPNVKCTVLDLPQVVGNLKGSNNLEFVSGDMFQFIPPADVVFLKWILHDWNDEECIKILKRCKEAIPSKEEGGKLIIIDMVVNDHNKGSYESTETQLFYDLTLMALLTGTERTETEWKKLFVAAGFTSYIISPVLGLKSIIEVFP | 99% | –
CYP82D Panax ginseng: CYP82D from Panax ginseng (protein, Panax ginseng) METFLAQLYSTTTIAALFVLLVLYYFSPWTRINKKNVAPEAGGGWPIIGHLHLLGGSKLPHLVFGSMADKYGPIFTVRLGVQRSLVVSSWEMVKDIFTTNDVIVSGRPKFLAAKHLSYNYAMFGFSPYGSFWLELRKITSLQLLSNRRLELLKHVRVSEMEISMRQLYKLWSEKKNGSGRVLMDMKKWFGELNLNVTFRMVAGKRYFGGGAASNDEEARRCRRVVREFFRLLGVVVVADSLPFLRWLDLGGYERAMKETAREMDSIVSVWLEEHRIKSDSSGDDANMEQDFMDVMLSAVKNVDLCGFDAHTVIKATCMVIISSGTDTTTVELTWALCLLLNNRHVLKKAQEELDNVVGKQRRVKESDLNNLIYLQAIVKETLRLYPAGQLGGQREFSDDCTVGGYHVPKRTRLVVNLWKLHRDPRIWSDPTEFRPERFLERHKEIDVKGQHFELIPFGAGRRVCPGITFGLQMFHLVLASLLHGFDISTPSDAPVDMAEGAGLTNAKITPLEILIAPRLSPSLYE | around 93% | –
